Source: patent US20260250363A1 (AP BIOSCIENCES, published 2026)
Where two headings read alike, the source gives them in different places.

Experiments:
[1] = target: T1, Recombinant SARS-CoV-2 BA.2 Spike (GCN4-IZ) His Protein, CF (R&D, 11109-CV) (SARS-CoV-2, UniProt P0DTC2 16-1211); test: competition ELISA: blocks biotin-ACE2 binding to coated spike
[2] = target: T2, SARS-CoV-2 B.1.1.529 Spike Protein (Omicron) (SARS-CoV-2, UniProt P0DTC2 16-1211); test: as above
[3] = target: T3, SARS-CoV-2 Spike Trimer, His Tag (BA.5/Omicron) (MALS verified) (AcroBiosystems, SPN-C522e) (SARS-CoV-2, UniProt P0DTC2 16-1213); test: as above
[4] = target: T4, SARS-CoV-2 Spike Trimer, His Tag (BA.4/Omicron) (MALS verified) (AcroBiosystems, SPN-C5229) (SARS-CoV-2, UniProt P0DTC2 16-1213); test: as above
[5] = target: T3, SARS-CoV-2 Spike Trimer, His Tag …; test: BLI (ForteBio), mAb on AHC sensor, spike in solution
[6] = target: T1, Recombinant SARS-CoV-2 BA.2 Spike …; test: as above
[7] = target: T2, SARS-CoV-2 B.1.1.529 Spike Protein …; test: as above
[8] = target: T4, SARS-CoV-2 Spike Trimer, His Tag …; test: as above
[9] = target: T5, SARS-CoV-2 AY.1 Spike Protein (R&D, Cat. #10922-CV) (SARS-CoV-2, UniProt P0DTC2 16-1211); test: competition ELISA: blocks biotin-ACE2 binding to coated spike
[10] = target: T6, SARS-CoV-2 C.37 Spike His Protein (R&D, Cat. #10887-CV) (SARS-CoV-2, UniProt P0DTC2 16-1211); test: as above
[11] = target: T2, SARS-CoV-2 B.1.1.529 Spike Protein …; test: as above; remark: listed apart in the source
[12] = target: T7, SARS-CoV-2 Spike Protein, wild type (R&D, Cat. #10549-CV) (SARS-CoV-2, UniProt P0DTC2 16-1211); test: as above
[13] = target: T8, SARS-CoV-2 B.1.617.2 Spike Protein (R&D, Cat. #10878-CV) (SARS-CoV-2, UniProt P0DTC2 16-1211); test: as above
[14] = target: T7, SARS-CoV-2 Spike Protein, wild type …; test: as above; remark: listed apart in the source
[15] = target: T6, SARS-CoV-2 C.37 Spike His Protein (R&D, …); test: direct ELISA on coated spike
[16] = target: T5, SARS-CoV-2 AY.1 Spike Protein (R&D, …); test: direct ELISA on coated spike
[17] = target: T6, SARS-CoV-2 C.37 Spike His Protein (R&D, …); test: competition ELISA: blocks biotin-ACE2 binding to coated spike; remark: listed apart in the source
[18] = target: T7, SARS-CoV-2 Spike Protein, wild type …; test: direct ELISA on coated spike
[19] = target: T2, SARS-CoV-2 B.1.1.529 Spike Protein …
[20] = target: T6, SARS-CoV-2 C.37 Spike His Protein (R&D, …); test: BLI (ForteBio), mAb on AHC sensor, spike in solution
[21] = target: T7, SARS-CoV-2 Spike Protein, wild type …; test: as above
[22] = target: T5, SARS-CoV-2 AY.1 Spike Protein (R&D, …); test: as above
[23] = target: T8, SARS-CoV-2 B.1.617.2 Spike Protein …; test: as above
[24] = target: T8, SARS-CoV-2 B.1.617.2 Spike Protein …; test: competition ELISA: blocks biotin-ACE2 binding to coated spike; remark: listed apart in the source
[25] = target: T5, SARS-CoV-2 AY.1 Spike Protein (R&D, …); test: as above; remark: listed apart in the source
[26] = target: T8, SARS-CoV-2 B.1.617.2 Spike Protein …; test: direct ELISA on coated spike
[27] = target: T2, SARS-CoV-2 B.1.1.529 Spike Protein …; remark: listed apart in the source
[28] = target: SARS-CoV-2 C.37 Spike His Protein (R&D, Cat. #10887-CV) (SARS-CoV-2, UniProt P0DTC2 16-1211); test: direct ELISA on coated spike; no plateau within the range shown
[29] = target: SARS-CoV-2 AY.1 Spike Protein (R&D, Cat. #10922-CV) (SARS-CoV-2, UniProt P0DTC2 16-1211)
[30] = target: SARS-CoV-2 Spike Protein, wild type (R&D, Cat. #10549-CV) (SARS-CoV-2, UniProt P0DTC2 16-1211); test: direct ELISA on coated spike; no plateau within the range shown

B1: Anti-SARS-CoV-2 #R3-1a-1-# R4-1a-10 scFv bsAb (bispecific antibody)
heavy: not shown
light: NFMLTQPHSVSESPGKTVTISCTRSSGSIASKYVQWYQQRPGNSPTTVIYEDDQRPSGVPDRFSASIDSSANTASLTISGLKPEDEADYYCQSYDDNTAVFGGGTHLTVLGQPKAAPSVTLFPPSSEELQANKATLVCLVSDFYPGAVTVAWKADGSPVKVGVETTKPSKQSNNKYAASSYLSLTPEQWKSHRSYSCRVTHEGSTVEKTVAPAECS
- IC50 [1]: 0.803 nM
- IC50 [2]: 1.83 nM
- IC50 [3]: 4.97 nM
- IC50 [4]: 3.51 nM

B2: R3-1a-1/R4-1a-51 scFv (bispecific antibody)
heavy chain with C-terminal scFv: not shown
light chain: B1 light
- IC50 [1]: 3.31 nM
- IC50 [2]: 5.85 nM
- IC50 [3]: 11.1 nM
- IC50 [4]: 7.74 nM

B3: anti-SARS-CoV-2 antibody clone R4-21 (antibody, V domains shown)
VH: QVQLVQSGAEVKKPGESLKISCKGSGYSFTSYWIGWVRQMPGKGLEWMGIIYPGDSDTRYSPSFQGQVTISADKSISTAYLQWSSLKASDTAMYYCATQTPYYDSSDYYLGDAFDIWGQGTMVTVSS
VL: QSALTQPASVSGSPGQSITISCTGTSSDVGGYNYVSWYQQHPGKAPKLIIYDVRNRPSGVSNRFSGSKSGNTASLTISGLQAEDEADYYCGSYTSSSTLGFGGGTKLTVLG
- Kd [5]: 2.63 nM
- Kd [6]: 2.32 nM
- Kd [7]: 2.58 nM
- Kd [8]: 1.62 nM

B4: Anti-SARS-CoV-2 #R4-11#R4-1a-10 scFv bsAb (bispecific antibody)
heavy: not shown
light: QSVLTQPPSVSEAPGQRVTISCSGSSSNIANNAVNWYQQLPGQAPKLLIFYDDLLPSWVSDRFSGSKSGTSASLAISGLQSEDEADYYCAAWDDSLNGPVFGGGTKLTVLRQPVAAPSVTLFPPSSEELQANKATLVCLISDFYPGAVTVAWKADSSPVKAGVETTTPSKQSNNKYAASSYLSLTPEQWKSHKSYSCQVTHEGSTVEKTVAPAECS
- IC50 [9]: 0.715 nM
- IC50 [10]: 1.97 nM
- IC50 [11]: 2.32 nM
- IC50 [12]: 2.73 nM
- IC50 [13]: 1.45 nM

B5: Anti-SARS-CoV-2 #R4-21-# R4-1a-10 scFv bsAb (bispecific antibody)
heavy: not shown
light: QSALTQPASVSGSPGQSITISCTGTSSDVGGYNYVSWYQQHPGKAPKLIIYDVRNRPSGVSNRFSGSKSGNTASLTISGLQAEDEADYYCGSYTSSSTLGFGGGTKLTVLGQPKAAPSVTLFPPSSEELQANKATLVCLISDFYPGAVTVAWKADSSPVKAGVETTTPSKQSNNKYAASSYLSLTPEQWKSHKSYSCQVTHEGSTVEKTVAPTECS
- IC50 [1]: 0.246 nM
- IC50 [2]: 1.08 nM
- IC50 [3]: 1.37 nM
- IC50 [4]: 1.04 nM

B6: Anti-SARS-CoV-2 #R4-21-# R4-1a-51 scFv bsAb (bispecific antibody)
heavy: not shown
light: B5 light
- IC50 [1]: 0.354 nM
- IC50 [2]: 1.01 nM
- IC50 [3]: 1.65 nM
- IC50 [4]: 1.14 nM

B7: anti-SARS-CoV-2 antibody clone R4-11 (antibody, V domains shown)
VH: QVQLVQSGAEVKKPGSSVKVSCKASGGAFSSYAISWVRQAPGQGLEWMGRIIPILGIANYAQKFQGRVTITADKSTSTAYMELSSLRSEDTAVYYCAGGSGYYYWGQGTTVTVSS
VL: QSVLTQPPSVSEAPGQRVTISCSGSSSNIANNAVNWYQQLPGQAPKLLIFYDDLLPSWVSDRFSGSKSGTSASLAISGLQSEDEADYYCAAWDDSLNGPVFGGGTKLTVLR
- IC50 [14]: 3.99 nM
- EC50 [15]: 0.0677 nM
- EC50 [16]: 0.0905 nM
- IC50 [17]: 1.8 nM
- EC50 [18]: 0.0622 nM
- EC50 [19]: 100 nM
- Kd [20]: 1.23 nM
- Kd [7]: 7.93 nM
- Kd [21]: 4.05 nM
- Kd [22]: 2.29 nM
- Kd [23]: 1.53 nM
- IC50 [24]: 1.14 nM
- IC50 [25]: 0.787 nM
- EC50 [26]: 0.0559 nM
- IC50 [27]: 24 nM

B8: Anti-SARS-CoV-2 #R4-1a-10-#R4-11 scFv bsAb (bispecific antibody)
heavy: not shown
light: QSVLTQPSSVSAAPWQRVTISCSGSDSNIGNNPVNWYQHVPGKAPTLLIYYDNFLASKISDRFSGSKSGTSASLAISGLQSDDEADYYCASWDDSLNGVVFGGGTKLTVLRQPKAAPSVTLFPPSSEELQANKATLVCLISDFYPGAVTVAWKADSSPVKAGVETTTPSKQSNNKYAASSYLSLTPEQWKSHRSYSCQVTHEGSTVEKTVAPTECS
- IC50 [9]: 0.349 nM
- IC50 [10]: 0.897 nM
- IC50 [11]: 1.06 nM
- IC50 [12]: 0.857 nM
- IC50 [13]: 0.563 nM

B9: R4-7 (antibody, V domains shown)
VH: QVQLQESGGGLVQPGGSLRLSCAVSGMTLDYYAIAWFRQAPGKEREGVSRISSSDGSTSYADSVKGRFTISRDNAKNTVYLQMNSLKPEDTGVYYCAASPLTYYSGTYYFPGEYDYWGQGTQVTVSS
- EC50 [28]: 13.3 nM
- EC50 [29]: 252000 nM
- EC50 [30]: 20.4 nM
